Experimental findings from article PMC8188212, “Multi‐Arm PEG/Peptidomimetic Conjugate Inhibitors of DR6/APP Interaction Block Hematogenous Tumor Cell Extravasation” (Advanced Science, 2021) are described below.

One data set has as its target hERG potassium channel (Homo sapiens, UniProt Q12809). In words: Whole-cell patch clamp recording of hERG current. The data set is classed as cell-based. The following applies: cisapride as positive control. How it is done: In addition, some common adverse effects suffered by frequently used medications were also evaluated. The whole‐cell patch clamp recording technique was used to record the whole‐cell hERG‐potassium to measure the cardiac toxicity of peptidomimetic agents on hERG potassium channel by utilizing cisapride as positive control (Figure 6E; Figure S10, Supporting Information). […] Meanwhile, the blood biochemical indexes of ligand‐treated mice sacrificed on day 2 or day 15 were tested to examine the influences of peptidomimetic agents to liver and kidney (Figure S11, Supporting Information).
(Patch clamp records ionic current or voltage across a cell membrane.)

Data set [1] deals with TCs over HUVECs monolayer. Put plainly: Transendothelial migration of TCs over HUVEC monolayer. The data set is classed as cell-based, human. The settings on record: AHP-DRI-12 and PEG-tAHP-DRI 1 × 10^−6 M (AHP-DRI-12), Nec-1 30 × 10^–6 M, zVAD 100 × 10^–6 M; 48 h; compared with control; n = 3. How it is done: HUVECs (1 × 10^5) in DMEM were added into 24‐well plate transwell upper chambers and the medium was changed every 2 days. Using the EVOM resistance tester, the transendothelial resistance was measured daily. When the TEER resistance value was >200 Ωcm^2, the cells grew into a monolayer of tight connection. 2 × 10^5 GFP‐TCs were added into upper chambers. One milliliter DMEM containing 10% FBS was added into lower chambers overnight. AHP‐DRI‐12 and PEG‐tAHP‐DRI (1 ×10^–6 M AHP‐DRI‐12), Nec‐1 (30 × 10^–6 M), and zVAD (100 × 10^–6 M) were added in upper chambers, respectively. After incubation for 48 h, cells in lower chambers were observed by fluorescence microscope.^[ ^56 ^]

Data set [2] can be described thus: Peptides stability in 25% rat serum. The following applies: FITC-labeled peptides, 25% fresh rat serum, 37 °C, 0, 4, 8, 24, 48, 96 h; acetonitrile/0.1% TFA precipitation; microplate reader; n = 3. The data set is classed as in vitro ADME. How it is done: FITC‐labeled peptides were added into 25% rat serum and incubated at 37 °C. After incubation at 0, 4, 8, 24, 48, 96 h, 100 µL solution was collected and acetonitrile (containing 0.1% TFA) was added to precipitate the protein in the serum. The serum samples were incubated at 4 °C for 20 min and then centrifuged at 12 000 rpm for 10 min. A total of 20 µL supernatant was measured by a microplate reader.

Square brackets hold non-standard residues; d marks the D form. Side chains are listed from the residue outwards. Ends that are not written are not given here. maleimide = maleimide: 4-arm PEG5k maleimide reacting with the C-terminal Cys thiol

Chain of hERG potassium channel (Q12809 whole entry): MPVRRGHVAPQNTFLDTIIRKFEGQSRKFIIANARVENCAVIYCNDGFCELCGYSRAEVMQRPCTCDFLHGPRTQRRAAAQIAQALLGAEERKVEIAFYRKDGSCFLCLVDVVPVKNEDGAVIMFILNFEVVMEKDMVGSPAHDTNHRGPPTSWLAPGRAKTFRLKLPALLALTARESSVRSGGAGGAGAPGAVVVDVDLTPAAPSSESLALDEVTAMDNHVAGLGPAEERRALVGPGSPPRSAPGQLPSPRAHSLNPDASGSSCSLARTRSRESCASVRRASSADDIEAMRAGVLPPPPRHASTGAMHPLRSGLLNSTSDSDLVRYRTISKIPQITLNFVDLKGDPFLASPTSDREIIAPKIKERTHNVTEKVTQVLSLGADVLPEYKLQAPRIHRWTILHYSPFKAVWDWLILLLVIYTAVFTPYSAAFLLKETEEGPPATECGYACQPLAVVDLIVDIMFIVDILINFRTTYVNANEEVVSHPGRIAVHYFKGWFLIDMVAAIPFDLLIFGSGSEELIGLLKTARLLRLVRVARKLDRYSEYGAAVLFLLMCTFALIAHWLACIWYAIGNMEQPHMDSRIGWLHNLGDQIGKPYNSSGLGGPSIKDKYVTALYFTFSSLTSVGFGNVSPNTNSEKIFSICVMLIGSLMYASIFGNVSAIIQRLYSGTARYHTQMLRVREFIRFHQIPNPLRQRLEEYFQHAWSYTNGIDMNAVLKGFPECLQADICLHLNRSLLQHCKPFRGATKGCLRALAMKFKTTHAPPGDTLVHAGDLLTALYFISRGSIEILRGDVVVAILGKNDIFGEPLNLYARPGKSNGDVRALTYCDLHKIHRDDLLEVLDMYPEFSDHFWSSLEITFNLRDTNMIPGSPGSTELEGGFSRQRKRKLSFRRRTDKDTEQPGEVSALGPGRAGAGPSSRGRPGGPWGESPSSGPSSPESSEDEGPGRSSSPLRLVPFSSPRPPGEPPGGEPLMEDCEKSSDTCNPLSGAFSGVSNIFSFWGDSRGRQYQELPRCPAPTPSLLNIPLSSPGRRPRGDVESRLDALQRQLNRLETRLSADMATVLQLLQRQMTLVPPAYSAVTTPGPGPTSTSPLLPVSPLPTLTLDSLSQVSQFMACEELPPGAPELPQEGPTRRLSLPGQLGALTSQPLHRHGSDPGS

With “PEG-tAHP-DRI: tetra-(D-retro-inverso isomer of AHP-12) substitued 4-arm PEG5k ([dP][dT][dT][dA][dD][dI][dT]C([maleimide-4‑arm PEG5k]); also: four peptides on one 4-arm PEG5k)”, in the data set with hERG potassium channel, the “inhibitory effect on hERG channels” value is reported as “no significant inhibitory effect”. In data set [1], the TCs transendothelial migration entry is “significantly attenuated TCs transendothelial migration”. In addition, the “degradation in 25% rat serum (proteolytic stability)” value in data set [2] was “obviously enhanced proteolytic resistance”.
